The test has as its target T1, tag-free PDZ domain of PDLIM5 (PDLIM5-PDZ), first 127 residues (human, UniProt Q96HC4 1-127).
T1 construct: cDNA amplified from human kidney cDNA; a degradation product of the full-length construct in pSUMO3; also called untagged PDLIM5-PDZ; source: E. coli BL21, purified (Ni-NTA, SUMO proteinase 2 digestion, size-exclusion chromatography); not shown: His6-SUMO3, N-terminal, cleaved
T1 sequence (looked up): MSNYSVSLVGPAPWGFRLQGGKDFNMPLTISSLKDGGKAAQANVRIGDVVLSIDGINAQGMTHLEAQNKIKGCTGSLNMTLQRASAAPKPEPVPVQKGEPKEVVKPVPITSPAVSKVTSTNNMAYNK
As to the kind of experiment: ELISA; 100 μl of 30 μM GST_AE1C-WT, -Δ11, -M909T or GST alone immobilised on a 96-well plate; incubated with 100 μl of 2 μg/ml GST_PDLIM5, tag-free PDLIM5-PDZ or GST_ILK; detection with anti-PDLIM5-nt or anti-ILK, HRP, ABTS. The settings on record: both partners purified. (In general: ELISA stands for enzyme-linked immunosorbent assay.)

B1: GST-tagged AE1 C-terminal domain, wild type (GST_AE1C-WT) (domain or fragment, human)
chain: LIFRNVELQCLDADDAKATFDEEEGRDEYDEVAMPV
notes: last 36 residues of anion exchanger 1 (AE1, SLC4A1), the cytosolic C-terminal tail; cloned into pGEX-4T-1; source: E. coli BL21, purified (glutathione sepharose beads); not shown: GST, N-terminal, kept
B1: the binding result is on record as “binds”.

B2: GST-tagged AE1 C-terminal domain with the missense mutation M909T (GST_AE1C-M909T) (domain or fragment, human, UniProt P02730 876-911, looked up)
chain: LIFRNVELQCLDADDAKATFDEEEGRDEYDEVATPV
notes: last 36 residues of anion exchanger 1 (AE1, SLC4A1) with the dRTA-causing mutation M909T; cloned into pGEX-4T-1; C-terminus becomes A908TPV; source: E. coli BL21, purified (glutathione sepharose beads); not shown: GST, N-terminal, kept
For B2, the binding result is reported as “binds”.

(Values after PMC5206653, “PDLIM5 links kidney anion exchanger 1 (kAE1) to ILK and is required for membrane targeting of kAE1” (Scientific Reports, 2017).)
